Columns and labels:
[1] = apigenin glucosylation acceptor reaction with recombinant glucansucrases (microplate screening); format: biochemical; details: sucrose 146 mM, apigenin 2.5 mM, 3% DMSO, 30° C., 24 h; HPLC-UV 340 nm peak areas
Method in brief: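 Centrifuged […] lysates of recombinant glucansucrases incubated with 146 mM sucrose and 2.5 mM apigenin (3% v/v DMSO final) at 30° C, 700 rpm for 24 h, then heat-denatured. Glucosylation efficiency (%) = glucosylated peak areas over glucosylated plus residual aglycone areas, from reverse-phase HPLC-UV at 340 nm.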

[2] = naringenin glucosylation acceptor reaction with recombinant glucansucrases (microplate screening); format: biochemical; details: sucrose 146 mM, naringenin 5 mM, 3% DMSO, 30° C., 24 h; HPLC-UV 340 nm peak areas
Method in brief: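 Centrifuged recombinant glucansucrase lysates incubated 24 h at 30° C., 700 rpm, with 146 mM sucrose and 5 mM naringenin (3% v/v DMSO final), then heat-denatured at 95° C. Products separated by reverse-phase HPLC with UV at 340 nm; efficiency is glucosylated-flavonoid peak area as % of glucosylated plus residual aglycone areas.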

B1: R446Q: ASNp amylosucrase single mutant, SEQ ID NO: 8 (protein, listed as Neisseria polysaccharea)
chain: SPNSQYLKTRILDIYTPEQRAGIEKSEDWRQFSRRMDTHFPKLMNELDSVYGNNEALLPMLEMLLAQAWQSYSQRNSSLKDIDIARENNPDWILSNKQVGGVCYVDLFAGDLKGLKDKIPYFQELGLTYLHLMPLFKCPEGKSDGGYAVSSYRDVNPALGTIGDLREVIAALHEAGISAVVDFIFNHTSNEHEWAQRCAAGDPLFDNFYYIFPDRRMPDQYDRTLREIFPDQHPGGFSQLEDGRWVWTTFNSFQWDLNYSNPWVFRAMAGEMLFLANLGVDILRMDAVAFIWKQMGTSCENLPQAHALIRAFNAVMRIAAPAVFFKSEAIVHPDQVVQYIGQDECQIGYNPLQMALLWNTLATREVNLLHQALTYRHNLPEHTAWVNYVRSHDDIGWTFADEDAAYLGISGYDHRQFLNRFFVNRFDGSFARGVPFQYNPSTGDCQVSGTAAALVGLAQDDPHAVDRIKLLYSIALSTGGLPLIYLGDEVGTLNDDDWSQDSNKSDDSRWAHRPRYNEALYAQRNDPSTAAGQIYQDLRHMIAVRQSNPRFDGGRLVTFNTNNKHIIGYIRNNALLAFGNFSEYPQTVTAHTLQAMPFKAHDLIGGKTVSLNQDLTLQPYQVMWLEIA
B1 gave an apigenin glucosylation efficiency [1] of 1.9% and a naringenin glucosylation efficiency [2] of 0.0%.
